Data taken from patent publication US20230374148A1, “BINDING MOLECULES THAT MULTIMERISE CD45” (UCB BIOPHARMA SRL, priority 2020, published 2023).

Experiments:
[1] = tested on: M2 macrophages; test: Caspase-3/7 induction, IncuCyte, M2; assay type: cell-based, human; conditions: over 6 days, BYbe 250-2 nM, Camptothecin, Staurosporine 5 μM
Description: Human PBMC derived from blood leukocyte platelet-apheresis cones (NHSBT Oxford) were banked as frozen aliquots. Prior to an assay being performed, 2 vials of frozen cells, each containing 5×10^7 cells in 1 ml, were thawed in a 37° C. water bath and then added to 50 ml complete media (RPMI 1640+2 mM GlutaMAX+1% Pen/Strep, all previous supplied by Invitrogen, +10% Fetal Bovine Serum (FBS), Sigma Aldrich). Cells were spun (500 g, 5 min, at RT) and re-suspended in 30 ml complete media to wash and spun again. Cells were resuspended in 20 ml MACS buffer (PBS, pH 7.2, 0.5% bovine serum albumin (BSA), and 2 mM EDTA, Sigma Aldrich) and counted on a ChemoMetec NucleoCounter NC-3000 to determine concentration and viability. PBMCs from one donor (UCB-Cones 802) was used in this assay. Monocyte isolation was performed using the Pan Monocyte Isolation Kit (Miltenyi Biotec, cat no. 130-096-537) and LS columns (Miltenyi Biotec, cat no 130-042-401) according to manufacturer's instructions. 100 μl of cells were removed and stored on ice to check monocyte purity post isolation. Isolated cells were stained with BV421 mouse anti-human CD14 (BD Biosciences, cat no. 563743) to check for purity of monocytes using FACS. M-CSF (Sigma Aldrich, cat no. SRP3110) and GM-CSF (R&D Systems, cat no. 215-GM/CF) were prepared at 100 μg/ml. Cells were prepared in M1 media (complete media+50 ng/ml GM-CSF) or M2 media (complete media+50 ng/ml M-CSF) at a concentration of 2.5×10^5 cells/ml. 200 μl cells were plated into two Corning 96 well Black polystyrene microplates (Sigma Aldrich) and incubated at 37° C., 5% CO2. Following a 3-day incubation at 37° C., 5% CO2, the plate was spun (500 g, 5 min, RT), buffer was aspirated, the cells were washed once with PBS and then resuspended in 200 μL of M1 media or M2 media. […] The caspase dye was measured with the green laser (350 ms) and the cytotox dye was measured with a red laser (650 ms). The green dye signal was analysed using Incucyte® Zoom2016B. […]

[2] = target: T1, CD45 ECD (Homo sapiens, UniProt P08575); test: Sedimentation velocity, analytical ultracentrifuge; assay type: binding; conditions: for Experimental S value: molar 1:1 mixture
T1 construct: extracellular domain of CD45 (UniProtKB—P08575, residue positions 225-573); TEV cleavage site (C); 10-His tag (C); made in house; host or cells: HEK293
T1 sequence (P08575 225-573): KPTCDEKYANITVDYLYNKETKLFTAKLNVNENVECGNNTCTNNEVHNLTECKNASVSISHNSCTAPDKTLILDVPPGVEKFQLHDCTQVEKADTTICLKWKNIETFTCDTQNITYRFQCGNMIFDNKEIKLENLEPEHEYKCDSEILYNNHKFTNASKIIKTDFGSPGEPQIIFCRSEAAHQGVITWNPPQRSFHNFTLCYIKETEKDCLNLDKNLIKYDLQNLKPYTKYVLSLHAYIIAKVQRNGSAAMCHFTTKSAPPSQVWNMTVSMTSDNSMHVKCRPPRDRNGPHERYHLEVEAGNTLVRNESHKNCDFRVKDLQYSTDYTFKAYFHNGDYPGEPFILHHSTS
Description: CD45 ECD and 4133-6294 BYbe were mixed in a molar ratio of 1:1 and incubated for 1 hour at room temperature. The molar ratio was determined using the predicted mass of 4133-6294 BYbe at 73.5 kDa and the mass of CD45 ECD as determined by mass photometry at 62 kDa.
The CD45 ECD-4133-6294 BYbe mixture, CD45 ECD only or 4133-6294 BYbe only were loaded into cells with 2-channel charcoal-epon centrepieces with 12 mm optical path length and glass quartz glass windows. The corresponding buffer was loaded into the reference channel of each cell (the instrument functions like a dual beam spectrometer). Those loaded cells were then placed into an AN-60Ti analytical rotor, loaded into a Beckman-coulter Optima analytical ultracentrifuge and brought to 20° C. The rotor was then brought to 3,000 rpm and the samples were scanned at 280 nm to confirm proper cell loading and appropriate adjustment of the laser, via the laser delay setting. The rotor was then brought to the final run speed of 50,000 rpm. Scans were recorded every 20 seconds for 8 hours. Radial scans ranged from 5.75 to 7.25 cm.
The data were analysed using the c(s) method developed by peter Shuck at the N.I.H and implemented in his analysis program SEDFIT version 14.6e. In this approach many raw data scans directly fitted (36,000 data points for each sample in this case) to derive the distribution of sedimentation coefficients, while modelling the influence of diffusion on the data in order to enhance the resolution. The method works by assigning a diffusion coefficient to each value of sedimentation coefficient based on an assumption that all species have the same overall hydrodynamic shape (with shape defined by the frictional coefficient relative to that for a sphere, f/f0). The f/f0 values were varied to find the best overall fit of the data for each sample. A maximum entropy regularization probability of 0.95 was used and time invariant noise was removed. The analysis was performed using the standard solvent model.

B1: 4133-6294 BYbe: anti-CD45 BYbe (Fab-scFv): 4133 Fab HC-G4S linker-6294 scFv heavy chain paired with 4133 light chain (antibody)
heavy: QEQLVESGGGLVQPEGSLTLTCTASGFSFSGNYYMCWVRQAPGKGLEWIGCLYTGSSGSTYYASWAKGRFTISKTSSTTVTLQMTSLTAADTATYFCARDLGYEIDGYGGLWGQGTLVTVSSGQPKAPSVFPLAPCCGDTPSSTVTLGCLVKGYLPEPVTVTWNSGTLTNGVRTFPSVRQSSGLYSLSSVVSVTSSSQPVTCNVAHPATNTKVDKTVAPSTCSKPGGGGSGGGGSEVQLVESGAELARPGASVKMSCKASGYTFTSYTMHWVKQRPGQCLEWIGYINPSSGYTEYNQKFKDKTTLTADKSSSTAYLQLSSLTSEDSAVYYCARVGDGFYPSWLAYWGQGTLVTVSSGGGGSGGGGSGGGGSGGGGSDIQMTQSPKFLLVSAGDRVTITCKASQSVRNDVAWYQQKPGQSPKLLIFYASKRYTGVPDRFTGSGYGTDFTFTISTVQAEDLAVYFCQQDYSSPTTFGCGTKLEIK
light: AQVLTQTPSPVSAVVGGTVSISCQASQSVYNNNNLSWYQQKPGQPPKLLIYDASKLASGVPSRFKGSGSGTQFTLTISGVQCDDAATYYCLGGYYSSGWYFAFGGGTKVVVKRTPVAPTVLIFPPAADQVATGTVTIVCVANKYFPDVTVTWEVDGTTQTTGIENSKTPQNSADCTYNLSSTLTLTSTQYNSHKEYTCKVTQGTTSVVQSFNRGDC
levels of Caspase-3/7 [1]: in-line with NegCtrl BYbe-treated and untreated macrophages
Experimental S value ([2]; CD45 1:1 BYbe complex): 6.9 S
Percentage of area under the curve ([2]; CD45 1:1 BYbe in molar 1:1 mixture): 11.99%
Experimental S value ([2]; CD45 2:1 BYbe complex): 7.15 S
Experimental S value ([2]; CD45 2:2 BYbe complex): 8.78 S
Percentage of area under the curve ([2]; CD45 2:2 BYbe in molar 1:1 mixture): 37.7%
Experimental S value ([2]; CD45 3:3 BYbe complex): 10.04 S
Percentage of area under the curve ([2]; CD45 3:3 BYbe in molar 1:1 mixture): 35.7%
Experimental S value ([2]; CD45 4:3 BYbe complex): 11.12 S
Experimental S value ([2]; CD45 4:4 BYbe complex): 13.3 S
Percentage of area under the curve ([2]; CD45 4:4 BYbe in molar 1:1 mixture): 3.46%
Percentage of area under the curve ([2]; CD45 (uncomplexed) in molar 1:1 mixture of CD45 ECD and BYbe): 9.21%
